We go through 40 molecules from US20220306744A1 (CRESCENDO BIOLOGICS, published 2022).

Residue numbers refer to the chain shown, from its start.

To fix the notation:
B1: 1.71b (VHH)
VHH: QVQLVESGGGLVKPGGSLRLSCAASGFTFGGSSMTWMRQAPGKGLEWVSYISSGGGVKFYTDSVKGRFTISRDNAKNSLYLQMNSLRADDTAVYYCAREAPLRLGESPHDAFDISGQGTMVTVSS
B2: 1.93b (VHH)
VHH: B1 VHH with Q1E, G30S, G31D, S32A, T61A, D89E
B3: 1.96b (VHH)
VHH: B1 VHH with Q1E, G30S, G31D, S32T, T61A, D89E
B4: 1.74b (VHH)
VHH: B1 VHH with Q1E, G30S, G31D, M37I
B5: 1.107b (VHH)
VHH: B1 VHH with Q1E, G30S, G31D, S32E, M34Y, D89E
B6: 1.82b (VHH)
VHH: B1 VHH with Q1E, G30S, G31D, S32T, D89E
B7: 1.85b (VHH)
VHH: B1 VHH with Q1E, G30S, G31D, S32Y, D89E
B8: 1.101b (VHH)
VHH: B1 VHH with Q1E, G30S, G31D, S32F, T61A, D89E
B9: 1.87b (VHH)
VHH: B1 VHH with Q1E, G30S, G31D, S32K, D89E
B10: 1.98b (VHH)
VHH: B1 VHH with Q1E, G30S, G31D, S32K, T61A, D89E
B11: 1.91b (VHH)
VHH: B1 VHH with Q1E, G30S, G31D, S32Q, T61A, D89E
B12: 1.80b (VHH)
VHH: B1 VHH with Q1E, G30S, G31D, T61A, D89E
B13: 1.79b (VHH)
VHH: B1 VHH with Q1E, G30S, G31D, M37K, T61A, D89E
B14: 1.81b (VHH)
VHH: B1 VHH with Q1E, G30S, G31D, M37V, T61A, D89E
B15: 1.89b (VHH)
VHH: B1 VHH with Q1E, G30S, G31D, S32Y, T61A, D89E
B16: 1.92b (VHH)
VHH: B1 VHH with Q1E, G30S, G31D, S32E, T61A, D89E
notes: also called Humabody 1.92b
B17: 1.78b (VHH)
VHH: B1 VHH with Q1E, G30S, G31D, M37I, T61A, D89E
B18: 1.75b (VHH)
VHH: B1 VHH with Q1E, G30S, G31D, M37I, D89E
B19: 1.103b (VHH)
VHH: B1 VHH with Q1E, G30S, G31D, S32E, M34Q, D89E
B20: 1.110b (VHH)
VHH: B1 VHH with Q1E, G30S, G31D, S32E, M34N, T61A, D89E
B21: 1.106b (VHH)
VHH: B1 VHH with Q1E, G30S, G31D, S32E, M34K, D89E
B22: 1.105b (VHH)
VHH: B1 VHH with Q1E, G30S, G31D, S32E, M34L, D89E
B23: 1.109b (VHH)
VHH: B1 VHH with Q1E, G30S, G31D, S32E, M34F, T61A, D89E
B24: 1.84b (VHH)
VHH: B1 VHH with Q1E, G30S, G31D, S32E, D89E
B25: 1.77b (VHH)
VHH: B1 VHH with Q1E, G30S, G31D, D89E
notes: also called Humabody 1.77b
B26: 1.95b (VHH)
VHH: B1 VHH with Q1E, G30S, G31D, S32G, T61A, D89E
B27: 1.88b (VHH)
VHH: B1 VHH with Q1E, G30S, G31D, S32R, D89E
B28: 1.73b (VHH)
VHH: B1 VHH with S25T, G30S, G31D, S53A, K58R
B29: 1.94b (VHH)
VHH: B1 VHH with Q1E, G30S, G31D, S32W, T61A, D89E
B30: 1.86b (VHH)
VHH: B1 VHH with Q1E, G30S, G31D, S32A, D89E
B31: 1.102b (VHH)
VHH: B1 VHH with Q1E, G30S, G31D, S32E, M34V, D89E
B32: 1.104b (VHH)
VHH: B1 VHH with Q1E, G30S, G31D, S32E, M34F, D89E
B33: 1.100b (VHH)
VHH: B1 VHH with Q1E, G30S, G31D, S32L, T61A, D89E
B34: 1.90b (VHH)
VHH: B1 VHH with Q1E, G30S, G31D, S32V, T61A, D89E
B35: 1.72b (VHH)
VHH: B1 VHH with G30S, G31D, T35S, K58I, T61A
B36: 1.76b (VHH)
VHH: B1 VHH with Q1E, G30S, G31D, M37I, T61A
B37: 1.99b (VHH)
VHH: B1 VHH with Q1E, G30S, G31D, S32R, T61A, D89E
B38: 1.108b (VHH)
VHH: B1 VHH with Q1E, G30S, G31D, S32E, M34A, T61A, D89E
B39: 1.83b (VHH)
VHH: B1 VHH with Q1E, G30S, G31D, S32E, M37F, D89E
B40: 1.97b (VHH)
VHH: B1 VHH with Q1E, G30S, G31D, S32I, T61A, D89E

T1 sequence (Q15116 21-288): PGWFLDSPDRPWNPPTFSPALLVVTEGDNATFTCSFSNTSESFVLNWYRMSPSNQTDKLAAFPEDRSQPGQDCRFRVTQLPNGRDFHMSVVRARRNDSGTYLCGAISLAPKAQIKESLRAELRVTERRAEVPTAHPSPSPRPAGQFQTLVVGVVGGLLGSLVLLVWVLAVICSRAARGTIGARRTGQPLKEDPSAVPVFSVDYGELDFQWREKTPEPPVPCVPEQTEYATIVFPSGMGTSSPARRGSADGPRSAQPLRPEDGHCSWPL

This experiment has as its target T1, human PD-1 expressed on cells (CHO TREX human PD1 cell line, full-length human PD-1 sequence) (human, UniProt Q15116 21-288).
T1 construct: Also used for human PD-1 on Jurkat reporter cells, on PathHunter cells and on PHA-stimulated human CD4+ T cells; also called CHO human PD1 cells; CHO human PD-1 cells
Briefly: worded summary of the screens.
Regarding B1, the binding result is recorded as “binds”.

Regarding B2, the binding result is given as “binds”.

In the case of B3, the binding result is “binds”.

Regarding B4, the binding result was “binds”.

Consider B5, for which the binding result was “binds”.

As for B6, the binding result is “binds”.

On to B7, for which the binding result is “binds”.

As for B8, the binding result was “binds”.

Consider B9, for which the binding result is “binds”.

As to B10, the binding result is recorded as “binds”.

B11: the binding result is “binds”.

In the case of B12, the binding result is listed as “binds”.

As to B13, the binding result is “binds”.

For B14, the binding result is “binds”.

With B15, the binding result is “binds”.

Turning to B16, the binding result is “binds”.

Take B17: the binding result was “binds”.

For B18, the binding result is given as “binds”.

Take B19: the binding result is recorded as “binds”.

Consider B20, for which the binding result is reported as “binds”.

Consider B21, for which the binding result is “binds”.

Turning to B22, the binding result is “binds”.

Turning to B23, the binding result was “binds”.

Consider B24, for which the binding result was “binds”.

As to B25, the binding result is reported as “binds”.

Regarding B26, the binding result is “binds”.

Consider B27, for which the binding result is given as “binds”.

With B28, the binding result is listed as “binds”.

B29: the binding result was “binds”.

As for B30, the binding result is reported as “binds”.

On to B31, for which the binding result is “binds”.

With B32, the binding result is given as “binds”.

Take B33: the binding result is listed as “binds”.

Regarding B34, the binding result is “binds”.

In the case of B35, the binding result is “binds”.

B36: the binding result is “binds”.

B37: the binding result was “binds”.

With B38, the binding result was “binds”.

B39: the binding result is on record as “binds”.

For the molecule B40, the binding result is “binds”.
